Data as given in publication doi:10.1101/2022.03.02.482546.

B1: recombinant human secreted protein acidic and rich in cysteine (natural protein)
chain: APQQEALPDETEVVEETVAEVTEVSVGANPVQVEVGEFDDGAEETEEEVVAENPCQNHHCKHGKVCELDENNTPMCVCQDPTSCPAPIGEFEKVCSNDNKTFDSSCHFFATKCTLEGTKKGHKLHLDYIGPCKYIPPCLDSELTEFPLRMRDWLKNVLVTLYERDEDNNLLTEKQKLRVKKIHENEKRLEAGDHPVELLARDFEKNYNMYIFPVHWQFGQLDQHPIDGYLSHTELAPLRAPLIPMEHCTTRFFETCDLDNDKYIALDEWAGCFGIKQKDIDKDLVI
B2: recombinant human hepatocyte growth factor activator (enzyme)
chain: QPGGNRTESPEPNATATPAIPTILVTSVTSETPATSAPEAEGPQSGGLPPPPRAVPSSSSPQAQALTEDGRPCRFPFRYGGRMLHACTSEGSAHRKWCATTHNYDRDRAWGYCVEATPPPGGPAALDPCASGPCLNGGSCSNTQDPQSYHCSCPRAFTGKDCGTEKCFDETRYEYLEGGDRWARVRQGHVEQCECFGGRTWCEGTRHTACLSSPCLNGGTCHLIVATGTTVCACPPGFAGRLCNIEPDERCFLGNGTGYRGVASTSASGLSCLAWNSDLLYQELHVDSVGAAALLGLGPHAYCRNPDNDERPWCYVVKDSALSWEYCRLEACESLTRVQLSPDLLATLPEPASPGRQACGRRHKKRTFLRPRIIGGSSSLPGSHPWLAAIYIGDSFCAGSLVHTCWVVSAAHCFSHSPPRDSVSVVLGQHFFNRTTDVTQTFGIEKYIPYTLYSVFNPSDHDLVLIRLKKKGDRCATRSQFVQPICLPEPGSTFPAGHKCQIAGWGHLDENVSGYSSSLREALVPLVADHKCSSPEVYGADISPNMLCAGYFDCKSDACQGDSGGPLACEKNGVAYLYGIISWGDGCGRLHKPGVYTRVANYVDWINDRIRPPRRLVAPS
B3: recombinant human high-mobility group protein B2 (natural protein)
chain: MGKGDPNKPRGKMSSYAFFVQTCREEHKKKHPDSSVNFAEFSKKCSERWKTMSAKEKSKFEDMAKSDKARYDREMKNYVPPKGDKKGKKKDPNAPKRPPSAFFLFCSEHRPKIKSEHPGLSIGDTAKKLGEMWSEQSAKDKQPYEQKAAKLKEKYEKDIAAYRAKGKSEAGKKGPGRPTGSKKKNEPEDEEEEEEEEDEDEEEEDEDEE
B4: full-length human CEMIP (cell migration-inducing and hyaluronan-binding protein) (natural protein)
chain: TVAAGCPDQSPELQPWNPGHDQDHHVHIGQGKTLLLTSSATVYSIHISEGGKLVIKDHDEPIVLRTRHILIDNGGELHAGSALCPFQGNFTIILYGRADEGIQPDPYYGLKYIGVGKGGALELHGQKKLSWTFLNKTLHPGGMAEGGYFFERSWGHRGVIVHVIDPKSGTVIHSDRFDTYRSKKESERLVQYLNAVPDGRILSVAVNDEGSRNLDDMARKAMTKLGSKHFLHLGFRHPWSFLTVKGNPSSSVEDHIEYHGHRGSAAARVFKLFQTEHGEYFNVSLSSEWVQDVEWTEWFDHDKVSQTKGGEKISDLWKAHPGKICNRPIDIQATTMDGVNLSTEVVYKKGQDYRFACYDRGRACRSYRVRFLCGKPVRPKLTVTIDTNVNSTILNLEDNVQSWKPGDTLVIASTDYSMYQAEEFQVLPCRSCAPNQVKVAGKPMYLHIGEEIDGVDMRAEVGLLSRNIIVMGEMEDKCYPYRNHICNFFDFDTFGGHIKFALGFKAAHLEGTELKHMGQQLVGQYPIHFHLAGDVDERGGYDPPTYIRDLSIHHTFSRCVTVHGSNGLLIKDVVGYNSLGHCFFTEDGPEERNTFDHCLGLLVKSGTLLPSDRDSKMCKMITEDSYPGYIPKPRQDCNAVSTFWMANPNNNLINCAAAGSEETGFWFIFHHVPTGPSVGMYSPGYSEHIPLGKFYNNRAHSNYRAGMIIDNGVKTTEASAKDKRPFLSIISARYSPHQDADPLKPREPAIIRHFIAYKNQDHGAWLRGGDVWLDSCRFADNGIGLTLASGGTFPYDDGSKQEIKNSLFVGESGNVGTEMMDNRIWGPGGLDHSGRTLPIGQNFPIRGIQLYDGPINIQNCTFRKFVALEGRHTSALAFRLNNAWQSCPHNNVTGIAFEDVPITSRVFFGEPGPWFNQLDMDGDKTSVFHDVDGSVSEYPGSYLTKNDNWLVRHPDCINVPDWRGAICSGCYAQMYIQAYKTSNLRMKIIKNDFPSHPLYLEGALTRSTHYQQYQPVVTLQKGYTIHWDQTAPAELAIWLINFNKGDWIRVGLCYPRGTTFSILSDVHNRLLKQTSKTGVFVRTLQMDKVEQSYPGRSHYYWDEDSGLLFLKLKAQNEREKFAFCSMKGCERIKIKALIPKNAGVSDCTATAYPKFTERAVVDVPMPKKLFGSQLKTKDHFLEVKMESSKQHFFHLWNDFAYIEVDGKKYPSSEDGIQVVVIDGNQGRVVSHTSFRNSILQGIPWQLFNYVATIPDNSIVLMASKGRYVSRGPWTRVLEKLGADRGLKLKEQMAFVGFKGSFRPIWVTLDTEDHKAKIFQVVPIPVVKKKKL
B5: recombinant human slit homolog 2 protein (ligand)
chain: QCSCSGSTVDCHGLALRSVPRNIPRNTERLDLNGNNITRITKTDFAGLRHLRVLQLMENKISTIERGAFQDLKELERLRLNRNHLQLFPELLFLGTAKLYRLDLSENQIQAIPRKAFRGAVDIKNLQLDYNQISCIEDGAFRALRDLEVLTLNNNNITRLSVASFNHMPKLRTFRLHSNNLYCDCHLAWLSDWLRQRPRVGLYTQCMGPSHLRGHNVAEVQKREFVCSGHQSFMAPSCSVLHCPAACTCSNNIVDCRGKGLTEIPTNLPETITEIRLEQNTIKVIPPGAFSPYKKLRRIDLSNNQISELAPDAFQGLRSLNSLVLYGNKITELPKSLFEGLFSLQLLLLNANKINCLRVDAFQDLHNLNLLSLYDNKLQTIAKGTFSPLRAIQTMHLAQNPFICDCHLKWLADYLHTNPIETSGARCTSPRRLANKRIGQIKSKKFRCSAKEQYFIPGTEDYRSKLSGDCFADLACPEKCRCEGTTVDCSNQKLNKIPEHIPQYTAELRLNNNEFTVLEATGIFKKLPQLRKINFSNNKITDIEEGAFEGASGVNEILLTSNRLENVQHKMFKGLESLKTLMLRSNRITCVGNDSFIGLSSVRLLSLYDNQITTVAPGAFDTLHSLSTLNLLANPFNCNCYLAWLGEWLRKKRIVTGNPRCQKPYFLKEIPIQDVAIQDFTCDDGNDDNSCSPLSRCPTECTCLDTVVRCSNKGLKVLPKGIPRDVTELYLDGNQFTLVPKELSNYKHLTLIDLSNNRISTLSNQSFSNMTQLLTLILSYNRLRCIPPRTFDGLKSLRLLSLHGNDISVVPEGAFNDLSALSHLAIGANPLYCDCNMQWLSDWVKSEYKEPGIARCAGPGEMADKLLLTTPSKKFTCQGPVDVNILAKCNPCLSNPCKNDGTCNSDPVDFYRCTCPYGFKGQDCDVPIHACISNPCKHGGTCHLKEGEEDGFWCICADGFEGENCEVNVDDCEDNDCENNSTCVDGINNYTCLCPPEYTGELCEEKLDFCAQDLNPCQHDSKCILTPKGFKCDCTPGYVGEHCDIDFDDCQDNKCKNGAHCTDAVNGYTCICPEGYSGLFCEFSPPMVLPRTSPCDNFDCQNGAQCIVRINEPICQCLPGYQGEKCEKLVSVNFINKESYLQIPSAKVRPQTNITLQIATDEDSGILLYKGDKDHIAVELYRGRVRASYDTGSHPASAIYSVETINDGNFHIVELLALDQSLSLSVDGGNPKIITNLSKQSTLNFDSPLYVGGMPGKSNVASLRQAPGQNGTSFHGCIRNLYINSELQDFQKVPMQTGILPGCEPCHKKVCAHGTCQPSSQAGFTCECQEGWMGPLCDQRTNDPCLGNKCVHGTCLPINAFSYSCKCLEGHGGVLCDEEEDLFNPCQAIKCKHGKCRLSGLGQPYCECSSGYTGDSCDREISCRGERIRDYYQKQQGYAACQTTKKVSRLECRGGCAGGQCCGPLRSKRRKYSFECTDGSSFVDEVEKVVKCGCTRCVS
B6: recombinant human insulin-like growth factor-binding protein 7 (natural protein)
chain: SSSDTCGPCEPASCPPLPPLGCLLGETRDACGCCPMCARGEGEPCGGGGAGRGYCAPGMECVKSRKRRKGKAGAAAGGPGVSGVCVCKSRYPVCGSDGTTYPSGCQLRAASQRAESRGEKAITQVSKGTCEQGPSIVTPPKDIWNVTGAQVYLSCEVIGIPTPVLIWNKVKRGHYGVQRTELLPGDRDNLAIQTRGGPEKHEVTGWVLVSPLSKEDAGEYECHASNSQGQASASAKITVVDALHEIPVKKGEGAEL

Molecular target: soluble form of full-length LRP1 (low-density lipoprotein receptor-related protein 1) (human)
Test: ELISA

First: recombinant human high-mobility group protein B1 (from UniProt P09429 1-215) (natural protein)
Second: recombinant human ADAMTS1 (from UniProt Q9UHI8 50-967) (enzyme)
The Kd of the first is 3.2-fold lower: 6.4 nM for the first, 20.2 nM for the second.

Compared with “recombinant human tumour necrosis factor-inducible gene 6 protein (from UniProt P98066 18-277) (natural protein)”, “recombinant human leukemia inhibitory factor (from UniProt P15018 23-202) (ligand)” is higher in Kd: 11 nM for the first, > 200 nM for the second. The first binds more tightly here.

First: B1
Second: B2
The Kd of the first is lower: 41 nM for the first, > 500 nM for the second.

Going from B3 to B4, the Kd falls from 3.9 nM to 2.6 nM (1.5-fold).

Going from B5 to B6, the Kd rises from 2 nM to 11 nM (5.5-fold).
